Reference: patent US20080072349

B1: Rubisco Activase derived polypeptide 183H12 (protein)
chain: MVKEDKQTDGDRWRGLAYDTSDDQQDITRGKGMVDSVFQAPMGTGTHHAVLSSYEYVSQGLRQYNLDNMMDGFYIAPAFMDKLVVHITKNFLTLPNIKVPLILGIWGGKGQGKSFQCELVMAKMGINPIMMSAGELESGNAGEPAKLIRQRYREAADLIKKGKMCCLFINDLDAGAGRMGGTTQYTVNNQMVNATLMNIADNPTNVQLPGMYNKEENARVPIICTGNDFSTLYAPLIRDGRMEKFYWAPTREDRIGVCKGIFRTDKIKDEDIVRLVDQFPGQSIDFFGALRARVYDDEVRKFVESLGVEKIGKRLVNSREGPPVFEQPEMTYEKLMEYGNMLVMEQENVKRVQLAETYLSQAALGDANADAIGRGTFYGKTEEKEPSKLE
B2: Rubisco Activase derived polypeptide 079H6 (protein)
chain: MVKEDKQTDGDRWRGLAYDTSDDQQDITRGKGMVDSVFQAPTGTGTHHAVLSSYEYVSQGLRQYNLDNMMDGFYIAPAFMDKLVVHITKNFLTLPNIKVPLILGIWGGKGQGKSFQCELVMAKMGINPIMISAGELESGNAGEPAKLIRQRYREAADLIKKGKMCCLFINDLDAGAGRMGGTTQYTVNNQMVNATLMNIADNPTNVQLPGMYNKEENARVPIICTGNDFSTLYAPLIRDGRMEKFYWAPTREDRIGVCKGIFRTDKIKDEDIVTLVDQFPGQSIDFFGALRAKVYDDEVRKFVESLGVEKIGKRLVNSREGPPVFEQPEMTYEKLMEYGNMLVMEQENVKRVQLAETYLSQAALGDANADAIGRGTFYGKTEEKEPSKLE
B3: Rubisco Activase derived polypeptide 301C7 (protein)
chain: MVKEDKQTDGDRWRGLAYDTSDDQQDITRGKGMVDSVFQAPMGTGTHHAVLSSYEYVSQGLRQYNLDNMMDGFYIAPAFMDKLVVHITKNFLTLPNIKVPLILGIWGGKGQGKSFQCELVMAKMGINPIMMSAGELESGNAGEPAKLIRQRYREAADLIKKGKMCCLLINDLDAGAGRMGGTTQYTVNNQMVNATLMNIADNPTNVQLPGMYNKEENARVPIICTGNDFSTLYAPLIRDGRMEKFYWAPTREDRIGICKGIFRTDKIKDEDIVTLVDQFPGQSIDFFGALRARVYDDEVRKFVESLGVENIGKRLVNSREGPPVFEQPEMTYEKLMEYGNMLVMEQENVKRVQLAETYLSQAALGDANADAIGRGTFYGKTEEKEPSKLE
B4: Rubisco Activase derived polypeptide 214A4 (protein)
chain: MVKEDKQTDGDRWRGLAYDTSDDQQDITRGKGMVDSVFQAPTGTGTHHAVLSSYEYVSQGLRQYNLDNMMDGFYIAPAFMDKLVVHITKNFLTLPNIKVPLILGIWGGKGQGKSFQCELVMAKMGINPIMMSAGELESGNAGEPAKLIRQRYREAADLIKKGKMCCLFINDLDAGAGRMGGTTQYTVNNQMVNATLMNIADNPTNVQLPGMYNKEENARVPIICTGNDFSTLYAPLIRDGRMEKFYWAPTREDRIGVCKGIFRTDKIKDEDIVRLVDQFPGQSIDFFGALRARVYDDEVRKFVESLGVEKIGKRLVNSREGPPVFEQPEMTYEKLMEYGNMLVMEQENVKRVQLAETYLSQAALGDANADAIGRGTFYGKTEEKEPSKLE
B5: Rubisco Activase derived polypeptide 301H3 (protein)
chain: MVKEDKQTDGDRWRGLAYDTSDDQQDITRGKGMVDSVFQAPMGTGTHHAVLSSYEYVSQGLRQYNLDNMMDGFYIAPAFMDKLVVHITKNFLTLPNIKVPLILGIWGGKGQGKSFQCELVMAKMGINPIMMSAGELESGNAGEPAKLIRQRYREAADLIKKGKMCCLFINDLDAGAGRMGGTTQYTVNNQMVNATLMNIADNPTNVQLPGMYNKEENARVPIICTGNDFSTLYAPLIRDGRMEKFYWAPTREDRIGICKGIFRTDKIKDEDIVRLVDQFPGQSIDFFGALRARVYDDEVRKFVESLGVENIGKRLVNSREGPPVFEQPEMTYEKLMEYGNMLVMEQENVKRVQLAETYLSQAALGDANADAIGRGTFYGKTEEKEPSKLE
B6: Rubisco Activase derived polypeptide 383A12 (protein)
chain: MVKEDKQTDGDRWRGLAYDTSDDQQDITRGKGMVDSVFQAPMGTGTHHAVLSSYEYVSQGLRQYNLDNMMDGFYIAPAFMDKLVVHITKNFLTLPNIKVPLILGIWGGKGQGKSFQCELVMAKMGINPIMMSAGELESGNAGEPAKLIRQRYREAADLIKKGKMCCLLINDLDAGAGRMGGTTQYTVNNQMVNATLMNIADNPTNVQLPGMYNKEENARVPIICTGNDFSTLYAPLIRDGRMEKFYWAPTREDRIGICKGIFRTDKIKDEDIVRLVDQFPGQSIDFFGALRARVYDDEVRKFVESLGVENIGKRLVNSREGPPVFEQPEMTYEKLMEYGNMLVMEQENVKRVQLAETYLSQAALGDANADAIGRGTFYGKTEEKEPSKLE
B7: Rubisco Activase derived polypeptide 182B11 (protein)
chain: MVKEDKQTDGDRWRGLAYDTSDDQQDITRGKGMVDSVFQAPMGTGTHHAVLSSYEYVSQGLRQYNLDNMMDGFYIAPAFMDKLVVHITKNFLTLPNIKVPLILGIWGGKGQGKSFQCELVMAKMGINPIMISAGELESGNAGEPAKLIRQRYREAADLIKKGKMCCLFINDLDAGAGRMGGTTQYTVNNQMVNATLMNIADNPTNVQLPGMYNKEENARVPIICTGNDFSTLYAPLIRDGRMEKFYWAPTREDRIGVCKGIFRTDKIKDEDIVTLVDQFPGQSIDFFGALRARVYDDEVRKFVESLGVEKIGKRLVNSREGPPVFEQPEMTYEKLMEYGNMLVMEQENVKRVQLAETYLSQAALGDANADAIGRGTFYGKTEEKEPSKLE
B8: Rubisco Activase derived polypeptide 126H4 (protein)
chain: MVKEDKQTDGDRWRGLAYDTSDDQQDITRGKGMVDSVFQAPMGTGTHHAVLSSYEYVSQGLRQYNLDNMMDGFYIAPAFMDKLVVHITKNFLTLPNIKVPLILGIWGGKGQGKSFQCELVMAKMGINPIRMSAGELESGNAGEPAKLIRQRYREAADLIKKGKMCCLFINDLDAGAGRMGGTTQYTVNNQMVNATLMNIADNPTNVQLPGMYNKEENARVPIICTGNDFSTLYAPLIRDGRMEKFYWAPTREDRIGVCKGIFRTDKIKDEDIVTLVDQFPGQSIDFFGALRARVYDDEVRKFVESLGVEKIGKRLVNSREGPPVFEQPEMTYEKLMEYGNMLVMEQENVKRVQLAETYLSQAALGDANADAIGRGTFYGKTEEKEPSKLE
B9: Rubisco Activase derived polypeptide 382D8 (protein)
chain: MVKEDKQTDGDRWRGLAYDTSDDQQDITRGKGMVDSVFQAPMGTGTHHAVLSSYEYVSQGLRQYNLDNMMDGFYIAPAFMDKLVVHITKNFLTLPNIKVPLILGIWGGKGQGKSFQCELVMAKMGINPIMVSAGELESGNAGEPAKLIRQRYREAADLIKKGKMCCLFINDLDAGAGRMGGTTQYTVNNQMVNATLMNIADNPTNVQLPGMYNKEENARVPIICTGNDFSTLYAPLIRDGRMEKFYWAPTREDRIGICKGIFRTDKIKDEDIVTLVDQFPGQSIDFFGALRARVYDDEVRKFVESLGVENIGKRLVNSREGPPVFEQPEMTYEKLMEYGNMLVMEQENVKRVQLAETYLSQAALGDANADAIGRGTFYGKTEEKEPSKLE
B10: Rubisco Activase derived polypeptide 184B2 (protein)
chain: MVKEDKQTDGDRWRGLAYDTSDDQQDITRGKGMVDSVFQAPMGTGTHHAVLSSYEYVSQGLRQYNLDNMMDGFYIAPAFMDKLVVHITKNFLTLPNIKVPLILGIWGGKGQGKSFQCELVMAKMGINPIMMSAGELESGNAGEPAKLIRQRYREAADLIKKGKMCCLFINDLDAGAGRMGGTTQYTVNNQMVNATLMNIADNPTNVQLPGMYNKEENARVPIICTGNDFSTLYAPLIRDGRMEKFYWAPTREDRIGVCKGIFRTDKIKDEDIVTLVDQFPGQSIDFFGALRARVYDDEVRKFVESLGVENIGKRLVNSREGPPVFEQPEMTYEKLMEYGNMLVMEQENVKRVQLAETYLSQAALGDANADAIGRGTFYGKTEEKEPSKLE
B11: wild type Rubisco Activase (Arabidopsis, short form RCA1) (protein)
chain: MVKEDKQTDGDRWRGLAYDTSDDQQDITRGKGMVDSVFQAPMGTGTHHAVLSSYEYVSQGLRQYNLDNMMDGFYIAPAFMDKLVVHITKNFLTLPNIKVPLILGIWGGKGQGKSFQCELVMAKMGINPIMMSAGELESGNAGEPAKLIRQRYREAADLIKKGKMCCLFINDLDAGAGRMGGTTQYTVNNQMVNATLMNIADNPTNVQLPGMYNKEENARVPIICTGNDFSTLYAPLIRDGRMEKFYWAPTREDRIGVCKGIFRTDKIKDEDIVTLVDQFPGQSIDFFGALRARVYDDEVRKFVESLGVEKIGKRLVNSREGPPVFEQPEMTYEKLMEYGNMLVMEQENVKRVQLAETYLSQAALGDANADAIGRGTFYGKTEEKEPSKLE

Molecular target: purified deactivated Arabidopsis Rubisco (Ribulose-1,5-bisphosphate carboxylase/oxygenase), O03042

Q: B1 was tested. Which Activation of deactivated Rubisco assay, 25° C., relative activity (%) did it give?
A: 109%

Q: What about the Activity (3rd tier) 25° C. (µmol CO2 min^-1 mg^-1) of the same protein?
A: 1.05

Q: What about the Activity (3rd tier) 40° C. (µmol CO2 min^-1 mg^-1) of the same protein?
A: 0.857

Q: And the Rubisco activation under catalytic conditions assay, 25° C., relative activity (%)?
A: 118%

Q: What about the “specific activity, Rubisco activation under catalytic conditions” value of the same protein?
A: The protein displaying the highest specific activity at either 25 °C or 40 °C was the best variant isolated in the first round, 183H12

Q: How did the Activation of deactivated Rubisco assay, 25° C., relative activity (%) turn out when B2 was run?
A: 111%

Q: What about the Activity (3rd tier) 25° C. (µmol CO2 min^-1 mg^-1) of the same protein?
A: 1.06

Q: What about the Activity (3rd tier) 40° C. (µmol CO2 min^-1 mg^-1) of the same protein?
A: 0.94

Q: What about the Rubisco activation under catalytic conditions assay, 25° C., relative activity (%) of the same protein?
A: 105%

Q: B3 was tested. Which Activation of deactivated Rubisco assay, 25° C., relative activity (%) did it give?
A: 94%

Q: What about the Activity (3rd tier) 25° C. (µmol CO2 min^-1 mg^-1) of the same protein?
A: 0.905

Q: And the Activity (3rd tier) 40° C. (µmol CO2 min^-1 mg^-1)?
A: 0.889

Q: And the Rubisco activation under catalytic conditions assay, 25° C., relative activity (%)?
A: 96%

Q: B4 was tested. Which Activation of deactivated Rubisco assay, 25° C., relative activity (%) did it give?
A: 111%

Q: What about the Activity (3rd tier) 25° C. (µmol CO2 min^-1 mg^-1) of the same protein?
A: 1.07

Q: What about the Activity (3rd tier) 40° C. (µmol CO2 min^-1 mg^-1) of the same protein?
A: 0.986

Q: What about the Rubisco activation under catalytic conditions assay, 25° C., relative activity (%) of the same protein?
A: 101%

Q: B5 was tested. Which Activation of deactivated Rubisco assay, 25° C., relative activity (%) did it give?
A: 101%

Q: And the Activity (3rd tier) 25° C. (µmol CO2 min^-1 mg^-1)?
A: 0.971

Q: What about the Activity (3rd tier) 40° C. (µmol CO2 min^-1 mg^-1) of the same protein?
A: 0.86

Q: And the Rubisco activation under catalytic conditions assay, 25° C., relative activity (%)?
A: 92%

Q: Which Activation of deactivated Rubisco assay, 25° C., relative activity (%) does the source give for B6 here?
A: 93%

Q: What about the Activity (3rd tier) 25° C. (µmol CO2 min^-1 mg^-1) of the same protein?
A: 0.891

Q: And the Activity (3rd tier) 40° C. (µmol CO2 min^-1 mg^-1)?
A: 0.92

Q: And the Rubisco activation under catalytic conditions assay, 25° C., relative activity (%)?
A: 96%

Q: Which results are given for B7?
A: Activity (3rd tier) 25° C. (µmol CO2 min^-1 mg^-1): 0.426; Activity (3rd tier) 40° C. (µmol CO2 min^-1 mg^-1): 0.359

Q: Which results are given for B8?
A: Activity (3rd tier) 25° C. (µmol CO2 min^-1 mg^-1): 0.616; Activity (3rd tier) 40° C. (µmol CO2 min^-1 mg^-1): 0.596

Q: What does the source list for B9?
A: Activation of deactivated Rubisco assay, 25° C., relative activity (%): 105%; Activity (3rd tier) 25° C. (µmol CO2 min^-1 mg^-1): 1.01; Activity (3rd tier) 40° C. (µmol CO2 min^-1 mg^-1): 0.91; Rubisco activation under catalytic conditions assay, 25° C., relative activity (%): 98%

Q: B10 was tested. Which Activity (3rd tier) 25° C. (µmol CO2 min^-1 mg^-1) did it give?
A: 1.05

Q: What about the Activity (3rd tier) 40° C. (µmol CO2 min^-1 mg^-1) of the same protein?
A: 0.889

Q: For B11, which Activation of deactivated Rubisco assay, 25° C., relative activity (%) is on record?
A: 100%

Q: And the Activity (3rd tier) 25° C. (µmol CO2 min^-1 mg^-1)?
A: 0.96

Q: What about the Activity (3rd tier) 40° C. (µmol CO2 min^-1 mg^-1) of the same protein?
A: 0.634

Q: And the Rubisco activation under catalytic conditions assay, 25° C., relative activity (%)?
A: 100%
